From US11813311B2, “Treatment and prevention of metabolic diseases” (Singapore Health Services PTE LTD., priority 2019, dated 2023)

B1: X203: mouse anti-mouse IL-11 IgG (IgG1κ), neutralising; VH SEQ ID NO:22, VL SEQ ID NO:23 (antibody, V domains shown)
VH: EVQLQQSGPELVKPGASVKIPCKASGYTFTDYNMDWVKQSHGKSLEWIGDINPHNGGPIYNQKFTGKATLTVDKSSSTAYMELRSLTSEDTAVYYCARGELGHWYFDVWGTGTTVTVSS
VL: DIVLTQSPASLAVSLGQRATISCRASKSVSTSGYSYIHWYQQKPGQPPKLLIYLASNLDSGVPARFSGSGSGTDFTLNIHPVEEEDAATYYCQHSRDLPPTFGGGTKLEIK
modifications: Enx203 VH; Enx203 VL
B2: X209: mouse anti-mouse IL-11Rα IgG (IgG1κ), neutralising; VH SEQ ID NO:24, VL SEQ ID NO:25 (antibody, V domains shown)
VH: QVQLQQPGAELVRPGSSVKLSCKASGYTFTNYWMHWLKQRPVQGLEWIGNIGPSDSKTHYNQKFKDKATLTVDKSSSTAYMQLNSLTSEDSAVYYCARGDYVLFTYWGQGTLVTVSA
VL: DIVLTQSPATLSLSPGERATLSCRASQSISNNLHWYQQKSHEAPRLLIKYASQSISGIPARFSGSGSGTDFTLSFSSLETEDFAVYFCQQSYSWPLTFGQGTKLEIK
modifications: Enx209 VH; Enx209 VL

Experiments:
Format in all cases: in vivo, mouse
[1] = system: mice with HFMCD-induced liver fibrosis; experiment: HFMCD fibrosis reversal with switch to normal chow plus antibody; settings: for regression of Erk activation: after removal of the metabolic stimulus; for reversal of hepatic collagen content: HFMCD 10 weeks then normal chow; for Mmp2 expression / Timp1 expression: mice with severe fibrosis
Protocol: FIGS. 21A to 21L. Inhibition of Il-11 signalling reverses NASH pathologies in preclinical models and HSC-to-myofibroblast transformation. (A) Schematic showing therapeutic dosing regime in NASH reversal experiment for data shown in (B-G). Mice were fed with WDF for 16 weeks to induce NASH and then treated with (10 mg/kg) X209 or IgG for 8 weeks while they were on continuous WDF feeding. (B) Total liver hydroxyproline content, the levels of (C) liver triglycerides, (D) serum ALT, (E), fasting blood glucose, (F) serum triglycerides, and (G) serum cholesterol in mice on NC and IgG- and X209-treated WDF (n≥5/group). (H) Schematic showing reversal experiment in which fibrosis was established by feeding mice HFMCD for 10 weeks and then replacing this with NC and initiating antibody (X203 and X209) therapy. Mice were euthanized at the indicated time points. (I) Total liver hydroxyproline content (dotted line represents the mean value of NC=0.93) and (J) relative mRNA expression of Mmp2/Timp1 at 1-, 3-, 6-weeks after concurrent metabolic intervention (diet switch) and X203, X209, or IgG treatment (n≥3/group). Quantification of ACTA2^+ve immunostaining (scale bars, 200 μm) following incubation (K) with TGFβ1 or (L) with PDGF, either prior to or after the addition of X203, X209, or IgG (n=5/group). (K-L) TGFβ1 (5 ng/ml), PDGF (20 ng/ml), IgG, X203 and, X209 (2 μg/ml). (B-G, K-L) Data are shown as box-and-whisker with median (middle line), 25th-75th percentiles (box) and min-max percentiles (whiskers); (I) data are shown as mean±s.d; (J) data are represented as line chart (mean) and transparencies indicate s.d. (B) Two-tailed Student's t-test (C-G,K-L) two-tailed, Tukey-corrected Student's t-test; (I-J) two-way ANOVA. FC: fold change; NC: normal chow; WDF: Western diet+15% (w/v) fructose; HFMCD: high fat methionine- and choline-deficient.
Furthermore, combination therapies may be beneficial for reversing fibrosis in NASH′. To address these points, severe liver fibrosis was established using HFMCD for 10 weeks, then converted mice to normal chow, mimicking a robust metabolic intervention, and initiated anti-IL-11 treatments in parallel (FIG. 21H).

HFMCD-fed mice = experiment: HFMCD NASH model, antibody from week 6 to 10; settings: 10 mg/kg biweekly, four weeks of therapy from week 6
Protocol: FIGS. 20A to 20N. Therapeutic targeting of Il-11 inhibits and reverses NASH pathologies in preclinical models. (A) Schematic showing therapeutic use of X203 and X209 (10 mg/kg, biweekly) in HFMCD-fed mice for experiments shown in (B-E). X203, X209 or IgG isotype control were administered from week 6 to 10 of HFMCD diet. (B) Representative liver histological images (Masson's Trichrome staining; scale bars, 100 μm), (C) relative liver hydroxyproline content, (D) relative liver pro-inflammatory mRNA expression levels (n≥6/group) and (E) serum ALT levels. (F) Western blots of hepatic Erk activation status. (G) Schematic of X203 or IgG administration to MCD-fed db/db mice for experiments shown in H-N. Western blots of hepatic (H) Il-11 and Gapdh, (I) p-Erk and Erk. (J) Representative Masson's Trichrome images of liver from X203 or IgG-treated MCD-fed db/db mice (scale bars, 100 μm). The levels of (K) hepatic triglyceride, (L) relative liver hydroxyproline, (M) serum ALT, and (N) mRNA expression of liver pro-inflammatory markers (n≥5/group). (C-E,K-N) Data are shown as box-and-whisker with median (middle line), 25th-75th percentiles (box) and min-max percentiles (whiskers); two-tailed, Tukey-corrected Student's t-test. FC: fold change; NC: normal chow; HFMCD: high fat methionine- and choline-deficient; MCD: methionine- and choline-deficient.
High fat methionine and choline-deficient (HFMCD) diet fed wild-type mice Five week old male C57BL/6N mice were fed with Methionine and Choline deficient diet supplemented with 60 kcal % fat (A060713011316, Research Diets); control mice were fed with normal chow (NC, Specialty Feeds). Durations of diet and antibody therapies are described.
Mice were injected intraperitoneally with either antagonist anti-IL-11 antibody, antagonist anti-IL11RA antibody or an identical amount of IgG isotype control for the treatment durations outlined in the figures.

mice with PDL = experiment: Pancreatic duct ligation (PDL) model of pancreatic injury; settings: 14 days
Source text: FIGS. 50A to 50C. Schematic, box plot and images relating to the effect of antagonism of IL-11 mediated signalling in a pancreatic duct ligation (PDL) model of pancreatic injury. (A) Schematic representation of experiment in which pancreatic injury is induced by PDL, and wherein mice are subsequently treated with neutralising anti-IL-11 RA antibody or IgG isotype control antibody. (B) Ligated lobe weight for mice treated with neutralising anti-IL-11 RA antibody or IgG isotype control antibody at 14 days. (C) Representative images of Masson's Trichrome staining of pancreatic tissue from mice treated with neutralising anti-IL-11 RA antibody or IgG isotype control antibody at 14 days.

[2] = after three weeks of antibody treatment
[3] = at six weeks of antibody treatment

Molecule | regression of Erk activation [1] | reversal of hepatic collagen content [1, 2] | reversal of hepatic collagen content [1, 3] | Mmp2 expression [1] | Timp1 expression [1] | Erk activation (liver) (HFMCD-fed mice) | liver damage (HFMCD-fed mice) | liver fibrosis (HFMCD-fed mice) | liver inflammation (HFMCD-fed mice) | steatosis (HFMCD-fed mice) | pancreatic fibrosis (mice with PDL) | reduction in pancreatic tissue associated with PDL (mice with PDL)
B1 | accelerated | 18% | 37% | rapidly upregulated | downregulated | abolished | inhibited or reversed | inhibited or reversed | inhibited or reversed | unchanged |  | 
B2 | accelerated | 24% | 46% | rapidly upregulated | downregulated | abolished | inhibited or reversed | inhibited or reversed | inhibited or reversed | unchanged | reduced pancreatic fibrosis | inhibited
